How the values were obtained:
[1] = target: the molecule itself; assay: cryo-EM structure; single-particle cryo-EM of protein purified in GDN detergent (20 mM Tris, 150 mM NaCl, 0.04% GDN), 3.0 mg/mL; samples at pH 5.0 and 8.0 (CeOTOP8), pH 5.0, 7.0, 8.0 and 9.0 (mOTOP2), pH 8.0 (mOTOP2 M374W)
[2] = target: the molecule itself; assay: SEC; loss-of-function mutants of mOTOP2 purified as a stable dimer (Supplementary Fig. 10b, not shown); the general purification ends with Superose 6 10/300 GL in 20 mM Tris pH 8.0, 150 mM NaCl, 0.04% GDN

Row | Protein | stoichiometry N [1] | stoichiometry N [2]
1 | Mus musculus Otopetrin 2 (mOTOP2), wild type (natural protein, Otopetrin 2 (mOTOP2), Mus musculus; wild type; the AlphaFold model AF-Q80SX5-F1 was the initial model; N-terminal 10x His tag, then GFP, then a thrombin cleavage site; residues of the site may remain after digestion; also called mouse OTOP2; WT mOTOP2; source: HEK293F cells (BacMam system), purified (Ni-NTA, thrombin digestion on column, Superose 6 SEC in GDN); not shown: His10, N-terminal, …) MSEELVPHPNESLPGPRASPREVWKKGGRLLSVLLAVNVLLLACTLISGGAFNKVAVYDTDVFALLTTMMLLAALWIVFYLLRTARCPDAVPYRDAHAGPIWLRGGLVLFGICTLVMDVFKTGYYSSFFECQSAIKILHPIIQAVFVIVQTYFLWISAKDCIHTHLDLTRCGLMFTLATNLAIWMAAVVDESVHQAHSYSGSHGNTSHTRLNPDSKRAGGAAEEDPCLCSTAICQIFQQGYFYLYPFNIEYSLFASTMLYVMWKNVGRLLASTHGHGHTPSRVSLFRETFFAGPVLGLLLFVVGLAVFILYEVQVSGERGHTRQALVIYYSFNIVCLGLMTLVSLSGSVIYRFDRRAMDHHKNPTRTLDVALLMGAALGQYAISYYSIVAVVVGSPRDLQGALNLSHALLMIAQHTFQNVFIIESLHRGPPGAEPREMPPKEPCQGITFANLDAIRTLPSCPPTPRLVIPNLESPQEAVAIISAPRCHWRRRCLKDISLFLLLCNVILWIMPAFGARPHFSNTVEVDFYGYSLWAAIVNICLPFGIFYRMHAVSSLLEVYVLS | 2 | –
2 | mOTOP2 L30W (natural protein, Mus musculus, Otopetrin 2 (mOTOP2), Mus musculus, with the point mutation L30W on TM1; same construct as the wild-type channel; The general purification protocol removes His10-GFP with thrombin; also called mOTOP2 L30W loss-of-function mutant; source: HEK293F cells (pEZTBM vector, same construct as the wild type), purified) MSEELVPHPNESLPGPRASPREVWKKGGRWLSVLLAVNVLLLACTLISGGAFNKVAVYDTDVFALLTTMMLLAALWIVFYLLRTARCPDAVPYRDAHAGPIWLRGGLVLFGICTLVMDVFKTGYYSSFFECQSAIKILHPIIQAVFVIVQTYFLWISAKDCIHTHLDLTRCGLMFTLATNLAIWMAAVVDESVHQAHSYSGSHGNTSHTRLNPDSKRAGGAAEEDPCLCSTAICQIFQQGYFYLYPFNIEYSLFASTMLYVMWKNVGRLLASTHGHGHTPSRVSLFRETFFAGPVLGLLLFVVGLAVFILYEVQVSGERGHTRQALVIYYSFNIVCLGLMTLVSLSGSVIYRFDRRAMDHHKNPTRTLDVALLMGAALGQYAISYYSIVAVVVGSPRDLQGALNLSHALLMIAQHTFQNVFIIESLHRGPPGAEPREMPPKEPCQGITFANLDAIRTLPSCPPTPRLVIPNLESPQEAVAIISAPRCHWRRRCLKDISLFLLLCNVILWIMPAFGARPHFSNTVEVDFYGYSLWAAIVNICLPFGIFYRMHAVSSLLEVYVLS | – | 2
3 | mOTOP2 V370W (natural protein, Mus musculus, Otopetrin 2 (mOTOP2), Mus musculus, with the point mutation V370W on TM9; same construct as the wild-type channel; The general purification protocol removes His10-GFP with thrombin; also called mOTOP2 V370W loss-of-function mutant; source: HEK293F cells (pEZTBM vector, same construct as the wild type), purified) MSEELVPHPNESLPGPRASPREVWKKGGRLLSVLLAVNVLLLACTLISGGAFNKVAVYDTDVFALLTTMMLLAALWIVFYLLRTARCPDAVPYRDAHAGPIWLRGGLVLFGICTLVMDVFKTGYYSSFFECQSAIKILHPIIQAVFVIVQTYFLWISAKDCIHTHLDLTRCGLMFTLATNLAIWMAAVVDESVHQAHSYSGSHGNTSHTRLNPDSKRAGGAAEEDPCLCSTAICQIFQQGYFYLYPFNIEYSLFASTMLYVMWKNVGRLLASTHGHGHTPSRVSLFRETFFAGPVLGLLLFVVGLAVFILYEVQVSGERGHTRQALVIYYSFNIVCLGLMTLVSLSGSVIYRFDRRAMDHHKNPTRTLDWALLMGAALGQYAISYYSIVAVVVGSPRDLQGALNLSHALLMIAQHTFQNVFIIESLHRGPPGAEPREMPPKEPCQGITFANLDAIRTLPSCPPTPRLVIPNLESPQEAVAIISAPRCHWRRRCLKDISLFLLLCNVILWIMPAFGARPHFSNTVEVDFYGYSLWAAIVNICLPFGIFYRMHAVSSLLEVYVLS | – | 2
4 | mOTOP2 M374W (natural protein, Mus musculus, Otopetrin 2 (mOTOP2), Mus musculus, with the point mutation M374W on TM9; same construct as the wild-type channel; The general purification protocol removes His10-GFP with thrombin; also called mOTOP2 M374W loss-of-function mutant; source: HEK293F cells (pEZTBM vector, same construct as the wild type), purified) MSEELVPHPNESLPGPRASPREVWKKGGRLLSVLLAVNVLLLACTLISGGAFNKVAVYDTDVFALLTTMMLLAALWIVFYLLRTARCPDAVPYRDAHAGPIWLRGGLVLFGICTLVMDVFKTGYYSSFFECQSAIKILHPIIQAVFVIVQTYFLWISAKDCIHTHLDLTRCGLMFTLATNLAIWMAAVVDESVHQAHSYSGSHGNTSHTRLNPDSKRAGGAAEEDPCLCSTAICQIFQQGYFYLYPFNIEYSLFASTMLYVMWKNVGRLLASTHGHGHTPSRVSLFRETFFAGPVLGLLLFVVGLAVFILYEVQVSGERGHTRQALVIYYSFNIVCLGLMTLVSLSGSVIYRFDRRAMDHHKNPTRTLDVALLWGAALGQYAISYYSIVAVVVGSPRDLQGALNLSHALLMIAQHTFQNVFIIESLHRGPPGAEPREMPPKEPCQGITFANLDAIRTLPSCPPTPRLVIPNLESPQEAVAIISAPRCHWRRRCLKDISLFLLLCNVILWIMPAFGARPHFSNTVEVDFYGYSLWAAIVNICLPFGIFYRMHAVSSLLEVYVLS | – | 2
5 | Caenorhabditis elegans Otopetrin-like 8 (CeOTOP8), wild type, full length (natural protein, UniProt G5EDX5 1-619, looked up, Otopetrin-like 8 (CeOTOP8), Caenorhabditis elegans; wild-type full-length channel; the AlphaFold model AF-G5EDX5-F1 was the initial model; A thrombin cleavage site stood between the protein and the C-terminal 10x His tag; residues of the site may remain after digestion; also called WT CeOTOP8; source: HEK293F cells (BacMam system), purified (Ni-NTA, thrombin digestion on column, Superose 6 SEC in …)) MLMVDEQLKIGATPMYSPSHNPIVIADDMEKGGSDSDSLPSSPTHHHELYRRPWIHEPRATNFFVRLITSLYALILTIISLVVEVSPTWRTDMWLAETIFYISMYGVGILFFAYCYIFIIYPGPYNQLISVLRKYKIIKNSEVWFIMQSQHNGEGAGTLYLRLGALFFGSVGIVLFGLELFLCIENVACKKVAIAKMIVAIVFTFIQMHFIFCNSKITVNSSRKIVAFGMMHLISVNLWTWFRFVLAKQEAKAHKKAQLKQTFRKYYSSSSSSSSEEIHELISAVLNSTLNNTPATKTMEPVASRLFALEHFGDVATFLTTCIVEYSLIGAAIMFILWKSIGQNNHQQSNSGKRKVKMRIDCSSSSTGLFAGIIFLIGSLVSMGMYTIFESLRNSSGAQLVFGIVDLSLFSIALGACIIGLWRMRHLQYRLHAHGEVIDEILLIIGLIGEILYCAVGIDVFITCRRSADLTVSALPAFVFVIRMIQVVVQAAFILTTSRLRCLSKYSMKYKPGKEIITFLLVSNVTLFVFHTFEGMKSSFGFSSKAATQYNYIIYAVGPLLVFYRFHSSACLAEIWKHTYSTKSNEYDHEHMSLSDSNLTAITPISDIKEIPSPQLLKH | 2 | –
